This note sets out measurements from patent US20210115124A1 (Genentech, published 2021).

T1: human VEGF (hVEGF) (human, UniProt P15692 181-395)
T1 construct: also called VEGF-A
T1 sequence: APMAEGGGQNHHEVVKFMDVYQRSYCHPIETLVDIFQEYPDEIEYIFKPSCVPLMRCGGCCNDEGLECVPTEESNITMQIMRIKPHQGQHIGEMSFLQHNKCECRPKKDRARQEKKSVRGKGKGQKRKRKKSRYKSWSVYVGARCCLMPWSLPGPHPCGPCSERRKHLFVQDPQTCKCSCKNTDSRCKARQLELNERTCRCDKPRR

B1: G6.31 HC-A60E (Fab, name in Kabat numbering, V domains shown)
VH: EVQLVESGGGLVQPGGSLRLSCAASGFTISDYWIHWVRQAPGKGLEWVAGITPAGGYTYYEDSVKGRFTISADTSKNTAYLQMNSLRAEDTAVYYCARFVFFLPYAMDYWGQGTLVTVSS
VL: DIQMTQSPSSLSASVGDRVTITCRASQDVSTAVAWYQQKPGKAPKLLIYSASFLYSGVPSRFSGSGSGTDFTLTISSLQPEDFATYYCQQGYGNPFTFGQGTKVEIK
notes: Fab
B2: G6.31 HC-N76E (Fab, name in Kabat numbering, V domains shown)
VH: EVQLVESGGGLVQPGGSLRLSCAASGFTISDYWIHWVRQAPGKGLEWVAGITPAGGYTYYADSVKGRFTISADTSKETAYLQMNSLRAEDTAVYYCARFVFFLPYAMDYWGQGTLVTVSS
VL: DIQMTQSPSSLSASVGDRVTITCRASQDVSTAVAWYQQKPGKAPKLLIYSASFLYSGVPSRFSGSGSGTDFTLTISSLQPEDFATYYCQQGYGNPFTFGQGTKVEIK
notes: Fab
B3: G6.31 HC-S74E (Fab, name in Kabat numbering, V domains shown)
VH: EVQLVESGGGLVQPGGSLRLSCAASGFTISDYWIHWVRQAPGKGLEWVAGITPAGGYTYYADSVKGRFTISADTEKNTAYLQMNSLRAEDTAVYYCARFVFFLPYAMDYWGQGTLVTVSS
VL: DIQMTQSPSSLSASVGDRVTITCRASQDVSTAVAWYQQKPGKAPKLLIYSASFLYSGVPSRFSGSGSGTDFTLTISSLQPEDFATYYCQQGYGNPFTFGQGTKVEIK
notes: Fab
B4: G6.31 HC-K43E (Fab, name in Kabat numbering, V domains shown)
VH: EVQLVESGGGLVQPGGSLRLSCAASGFTISDYWIHWVRQAPGEGLEWVAGITPAGGYTYYADSVKGRFTISADTSKNTAYLQMNSLRAEDTAVYYCARFVFFLPYAMDYWGQGTLVTVSS
VL: DIQMTQSPSSLSASVGDRVTITCRASQDVSTAVAWYQQKPGKAPKLLIYSASFLYSGVPSRFSGSGSGTDFTLTISSLQPEDFATYYCQQGYGNPFTFGQGTKVEIK
notes: Fab
B5: G6.31 HC-P41E (Fab, name in Kabat numbering, V domains shown)
VH: EVQLVESGGGLVQPGGSLRLSCAASGFTISDYWIHWVRQAEGKGLEWVAGITPAGGYTYYADSVKGRFTISADTSKNTAYLQMNSLRAEDTAVYYCARFVFFLPYAMDYWGQGTLVTVSS
VL: DIQMTQSPSSLSASVGDRVTITCRASQDVSTAVAWYQQKPGKAPKLLIYSASFLYSGVPSRFSGSGSGTDFTLTISSLQPEDFATYYCQQGYGNPFTFGQGTKVEIK
notes: Fab
B6: G6.31 HC-T28E (Fab, name in Kabat numbering, V domains shown)
VH: EVQLVESGGGLVQPGGSLRLSCAASGFEISDYWIHWVRQAPGKGLEWVAGITPAGGYTYYADSVKGRFTISADTSKNTAYLQMNSLRAEDTAVYYCARFVFFLPYAMDYWGQGTLVTVSS
VL: DIQMTQSPSSLSASVGDRVTITCRASQDVSTAVAWYQQKPGKAPKLLIYSASFLYSGVPSRFSGSGSGTDFTLTISSLQPEDFATYYCQQGYGNPFTFGQGTKVEIK
notes: Fab
B7: G6.31 HC-A71E (Fab, name in Kabat numbering, V domains shown)
VH: EVQLVESGGGLVQPGGSLRLSCAASGFTISDYWIHWVRQAPGKGLEWVAGITPAGGYTYYADSVKGRFTISEDTSKNTAYLQMNSLRAEDTAVYYCARFVFFLPYAMDYWGQGTLVTVSS
VL: DIQMTQSPSSLSASVGDRVTITCRASQDVSTAVAWYQQKPGKAPKLLIYSASFLYSGVPSRFSGSGSGTDFTLTISSLQPEDFATYYCQQGYGNPFTFGQGTKVEIK
notes: Fab
B8: G6.31 HC-G65E (Fab, name in Kabat numbering, V domains shown)
VH: EVQLVESGGGLVQPGGSLRLSCAASGFTISDYWIHWVRQAPGKGLEWVAGITPAGGYTYYADSVKERFTISADTSKNTAYLQMNSLRAEDTAVYYCARFVFFLPYAMDYWGQGTLVTVSS
VL: DIQMTQSPSSLSASVGDRVTITCRASQDVSTAVAWYQQKPGKAPKLLIYSASFLYSGVPSRFSGSGSGTDFTLTISSLQPEDFATYYCQQGYGNPFTFGQGTKVEIK
notes: Fab
B9: G6.31 HC-K64E (Fab, name in Kabat numbering, V domains shown)
VH: EVQLVESGGGLVQPGGSLRLSCAASGFTISDYWIHWVRQAPGKGLEWVAGITPAGGYTYYADSVEGRFTISADTSKNTAYLQMNSLRAEDTAVYYCARFVFFLPYAMDYWGQGTLVTVSS
VL: DIQMTQSPSSLSASVGDRVTITCRASQDVSTAVAWYQQKPGKAPKLLIYSASFLYSGVPSRFSGSGSGTDFTLTISSLQPEDFATYYCQQGYGNPFTFGQGTKVEIK
notes: Fab
B10: G6.31 HC-S82bE (Fab, name in Kabat numbering, V domains shown)
VH: EVQLVESGGGLVQPGGSLRLSCAASGFTISDYWIHWVRQAPGKGLEWVAGITPAGGYTYYADSVKGRFTISADTSKNTAYLQMNELRAEDTAVYYCARFVFFLPYAMDYWGQGTLVTVSS
VL: DIQMTQSPSSLSASVGDRVTITCRASQDVSTAVAWYQQKPGKAPKLLIYSASFLYSGVPSRFSGSGSGTDFTLTISSLQPEDFATYYCQQGYGNPFTFGQGTKVEIK
notes: Fab
B11: G6.31 HC-T68E (Fab, name in Kabat numbering, V domains shown)
VH: EVQLVESGGGLVQPGGSLRLSCAASGFTISDYWIHWVRQAPGKGLEWVAGITPAGGYTYYADSVKGRFEISADTSKNTAYLQMNSLRAEDTAVYYCARFVFFLPYAMDYWGQGTLVTVSS
VL: DIQMTQSPSSLSASVGDRVTITCRASQDVSTAVAWYQQKPGKAPKLLIYSASFLYSGVPSRFSGSGSGTDFTLTISSLQPEDFATYYCQQGYGNPFTFGQGTKVEIK
notes: Fab
B12: G6.31 HC-S30E (Fab, name in Kabat numbering, V domains shown)
VH: EVQLVESGGGLVQPGGSLRLSCAASGFTIEDYWIHWVRQAPGKGLEWVAGITPAGGYTYYADSVKGRFTISADTSKNTAYLQMNSLRAEDTAVYYCARFVFFLPYAMDYWGQGTLVTVSS
VL: DIQMTQSPSSLSASVGDRVTITCRASQDVSTAVAWYQQKPGKAPKLLIYSASFLYSGVPSRFSGSGSGTDFTLTISSLQPEDFATYYCQQGYGNPFTFGQGTKVEIK
notes: Fab
B13: G6.31 HC-P41R (Fab, name in Kabat numbering, V domains shown)
VH: EVQLVESGGGLVQPGGSLRLSCAASGFTISDYWIHWVRQARGKGLEWVAGITPAGGYTYYADSVKGRFTISADTSKNTAYLQMNSLRAEDTAVYYCARFVFFLPYAMDYWGQGTLVTVSS
VL: DIQMTQSPSSLSASVGDRVTITCRASQDVSTAVAWYQQKPGKAPKLLIYSASFLYSGVPSRFSGSGSGTDFTLTISSLQPEDFATYYCQQGYGNPFTFGQGTKVEIK
notes: Fab
B14: G6.31 HC-T28K (Fab, name in Kabat numbering, V domains shown)
VH: EVQLVESGGGLVQPGGSLRLSCAASGFKISDYWIHWVRQAPGKGLEWVAGITPAGGYTYYADSVKGRFTISADTSKNTAYLQMNSLRAEDTAVYYCARFVFFLPYAMDYWGQGTLVTVSS
VL: DIQMTQSPSSLSASVGDRVTITCRASQDVSTAVAWYQQKPGKAPKLLIYSASFLYSGVPSRFSGSGSGTDFTLTISSLQPEDFATYYCQQGYGNPFTFGQGTKVEIK
notes: Fab
B15: G6.31 HC-Q81E (Fab, name in Kabat numbering, V domains shown)
VH: EVQLVESGGGLVQPGGSLRLSCAASGFTISDYWIHWVRQAPGKGLEWVAGITPAGGYTYYADSVKGRFTISADTSKNTAYLEMNSLRAEDTAVYYCARFVFFLPYAMDYWGQGTLVTVSS
VL: DIQMTQSPSSLSASVGDRVTITCRASQDVSTAVAWYQQKPGKAPKLLIYSASFLYSGVPSRFSGSGSGTDFTLTISSLQPEDFATYYCQQGYGNPFTFGQGTKVEIK
notes: Fab
B16: G6.31 HC-K75E (Fab, name in Kabat numbering, V domains shown)
VH: EVQLVESGGGLVQPGGSLRLSCAASGFTISDYWIHWVRQAPGKGLEWVAGITPAGGYTYYADSVKGRFTISADTSENTAYLQMNSLRAEDTAVYYCARFVFFLPYAMDYWGQGTLVTVSS
VL: DIQMTQSPSSLSASVGDRVTITCRASQDVSTAVAWYQQKPGKAPKLLIYSASFLYSGVPSRFSGSGSGTDFTLTISSLQPEDFATYYCQQGYGNPFTFGQGTKVEIK
notes: Fab

This experiment concerns the target T1, human VEGF (hVEGF). The experiment can be described thus: SPR single-cycle.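 Note: fab variants injected over hVEGF immobilized on a CM5 chip (Biacore T200), threefold dilution series from 0.02 to 50 nM, kinetics fitted with a 1:1 Langmuir model.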
Description: To determine the binding affinity of selected Fab variants, SPR measurement with a BIACORE® T200 instrument was used. Briefly, series S sensor chip CM5 was activated with 1-ethyl-3-(3-dimethylaminopropyl) carbodiimide (EDC) and N-hydroxysuccinimide (NHS) reagents according to the supplier's instructions, and human VEGF (hVEGF) was coupled to achieve 50-80 response units (RU), then following by blocking un-reacted groups with 1M ethanolamine.
Three-fold serial dilutions of Fab in HBS-P buffer (0.01 M HEPES pH 7.4, 0.15 M NaCl, 0.005% surfactant P20) from low (0.02 nM) to high (50 nM) were injected (flow rate: 30 μl/min). The binding responses on hVEGF were corrected by subtracting of RU from a blank flow cell. The sensorgram was recorded and subject to reference and buffer subtraction before evaluating by BIACORE® T200 Evaluation Software (version 2.0). Association rates (kₒₙ) and dissociation rates (koff) were calculated using a simple one-to-one Langmuir binding model. The equilibrium dissociation constant (Kd) was calculated as the ratio koff/kₒₙ.
For B1, the “Fold change (relative to G6.31)” value is 1.6 fold, the dissociation constant Kd is 1.08 nM, the koff was determined as 0.000565 s⁻¹ and the kon worked out at 524000 M⁻¹ s⁻¹.
For B2, the “Fold change (relative to G6.31)” value amounted to 1 fold, the dissociation constant (Kd) stood at 1.72 nM, the koff worked out at 0.000467 s⁻¹ and the association rate constant (kon) was determined as 271000 M⁻¹ s⁻¹.
For B3 the same measures were 0.8 fold, 2.11 nM, 0.000499 s⁻¹ and 236000 M⁻¹ s⁻¹.
For B4 the same measures were 1.3 fold, 1.27 nM, 0.000482 s⁻¹ and 380000 M⁻¹ s⁻¹.
For B5 the same measures were 0.5 fold, 3.6 nM, 0.000548 s⁻¹ and 152000 M⁻¹ s⁻¹.
With B6, the “Fold change (relative to G6.31)” value was 3 fold, the Kd came out at 0.566 nM, the koff is 0.000352 s⁻¹ and the on-rate (kon) came to 621000 M⁻¹ s⁻¹.
On to B7, for which the “Fold change (relative to G6.31)” value was 1.1 fold, the Kd was found to be 1.48 nM, the off-rate (koff) was determined as 0.000379 s⁻¹ and the on-rate constant (kon) came out at 257000 M⁻¹ s⁻¹.
For B8 the same measures were 1.1 fold, 1.56 nM, 0.000472 s⁻¹ and 302000 M⁻¹ s⁻¹.
Taken in the same sequence, the figures for B9 were 2.4 fold, 0.715 nM, 0.000395 s⁻¹ and 552000 M⁻¹ s⁻¹.
For B10 the same measures were 1.7 fold, 0.991 nM, 0.000433 s⁻¹ and 437000 M⁻¹ s⁻¹.
Regarding B11, the “Fold change (relative to G6.31)” value is 0.8 fold, the Kd worked out at 2.05 nM, the off-rate constant (koff) amounted to 0.00044 s⁻¹ and the kon was 215000 M⁻¹ s⁻¹.
For the molecule B12, the “Fold change (relative to G6.31)” value stood at 0.2 fold, the dissociation constant Kd was determined as 7.1 nM, the koff turned out to be 0.000558 s⁻¹ and the on-rate constant (kon) was 78500 M⁻¹ s⁻¹.
On to B13, for which the “Fold change (relative to G6.31)” value worked out at 1.8 fold, binding was put at a Kd of 0.97 nM, the off-rate (koff) was determined as 0.000554 s⁻¹ and the kon came to 571000 M⁻¹ s⁻¹.
For B14 the same measures were 4 fold, 0.42 nM, 0.00041 s⁻¹ and 975000 M⁻¹ s⁻¹.
With B15, the “Fold change (relative to G6.31)” value is 0.8 fold, the dissociation constant (Kd) came out at 2.2 nM, the koff worked out at 0.000495 s⁻¹ and the kon was found to be 225000 M⁻¹ s⁻¹.
Taken in the same sequence, the figures for B16 were 0.8 fold, 2.04 nM, 0.000444 s⁻¹ and 217000 M⁻¹ s⁻¹.

The Kd is the constant that tells how readily two partners part at equilibrium. What is called koff is a measure of how fast the partners let go of each other. Higher therefore signals fast dissociation. Usually kon stands for the rate constant with which the complex forms. Read a low kon as slower complex formation.
